Experiments:
human Crtac1A = molecular target: T1, human Crtac1A (human, UniProt Q9NQ79 28-661); test: immunoblotting (Wes) of denatured recombinant Crtac1A/1B and human CSF
T1 construct: Recombinant protein (IB control sample) or native protein in human CSF and serum; also called rCrtac1A
T1 sequence: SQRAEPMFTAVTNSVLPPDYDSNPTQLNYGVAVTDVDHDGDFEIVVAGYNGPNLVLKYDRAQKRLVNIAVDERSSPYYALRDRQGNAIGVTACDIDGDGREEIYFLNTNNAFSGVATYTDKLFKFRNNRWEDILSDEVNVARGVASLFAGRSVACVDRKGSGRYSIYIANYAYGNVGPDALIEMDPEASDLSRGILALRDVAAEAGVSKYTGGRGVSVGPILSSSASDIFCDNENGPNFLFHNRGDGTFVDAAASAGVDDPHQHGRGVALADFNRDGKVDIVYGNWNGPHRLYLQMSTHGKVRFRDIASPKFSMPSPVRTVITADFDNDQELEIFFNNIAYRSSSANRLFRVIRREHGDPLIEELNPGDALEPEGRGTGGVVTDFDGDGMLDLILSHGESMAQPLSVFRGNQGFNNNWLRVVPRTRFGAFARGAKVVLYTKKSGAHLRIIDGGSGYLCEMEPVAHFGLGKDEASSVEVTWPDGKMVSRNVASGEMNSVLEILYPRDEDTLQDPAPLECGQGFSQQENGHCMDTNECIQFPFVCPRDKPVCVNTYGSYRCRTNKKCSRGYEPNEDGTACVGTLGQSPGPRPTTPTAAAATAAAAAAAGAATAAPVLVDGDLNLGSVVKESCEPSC
Description: Study of specificity of monoclonal antibody to antigen (1) Immunoblotting (IB) analysis using a monoclonal antibody purified from the culture supernatant of hybridomas of clones 1B4 and 15C2 was performed on human cerebrospinal fluid (2 specimens: referred to as CSF1 and CSF2) by simple Western (registered trademark) system Wes (registered trademark) (Protein Simple Corporation). In the analysis by Wes, capillary electrophoresis and IB of the sample were performed fully automatically by the apparatus. Specific operations such as preparation of an electrophoresis sample, preparation of a diluent of a primary antibody, and analysis by an apparatus were performed according to the protocol attached to Wes. As a control sample, recombinant proteins of Crtac1A and Crtac1B were used. These recombinant proteins were prepared in the same manner as in Example 1. For comparison, analysis using an anti-rat LOTUS antibody (ITM, 45-12C) as a primary antibody was also performed.
In FIG. 5, “conventional antibody” represents the anti-rat LOTUS antibody, and “rCrtac1A/1B” represents recombinant proteins of Crtac1A and Crtac1B. […] However, when monoclonal antibodies derived from clones 1B4 and 15C2 were used, a band was not detected. In the electrophoresis sample, the protein in the sample was denatured by addition of a sample buffer and heating.

[1] = molecular target: T2, antigen peptide P3 (BSA conjugate in the primary screening) (human, NH2-PEG6 at the N-terminus; C-terminal amide; disulfide bond between the two cysteine residues; carrier protein (BSA in the screening ELISA, KLH for immunization) conjugated to the N-terminal amino …); test: primary screening ELISA, BSA-conjugated antigen peptide immobilized, hybridoma culture supernatant
T2 peptide: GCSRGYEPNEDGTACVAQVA
Description: In order to select hybridomas producing monoclonal antibodies reactive to the antigen peptide, the culture supernatant of each hybridoma was measured by ELISA. In the primary screening, as a positive antigen, a peptide to which BSA was conjugated was used as a carrier protein for each of the antigen peptides P1, P2 and P3. Specific operations were as follows.
The positive antigen was diluted with PBS to a concentration of 1 μg/mL. Positive antigen (50 μL) was added to each well of a 96 well plate. Then, the plate was incubated at 4° C. for 17 hours, and a positive antigen was immobilized in the well to obtain an antigen immobilized plate. Each well was washed three times with PBS (250 μL). To each well was added a blocking buffer (250 μL, 0.5% skim milk/PBS) and blocked at room temperature for 1 hour. Culture supernatant (50 μL) of each hybridoma was added to each well, and the cells were incubated at room temperature for 1 hour. Each well was washed three times with PBS (250 μL). An ALP-labeled anti-mouse IgG goat antibody (SBI, product number 1030-04) was diluted 1:2,500 with PBS. A solution (50 μL) of this labeled antibody was added to each well, and the well was incubated at room temperature for 30 minutes. Each well was washed three times with PBS (250 μL). […] The plate was set in a microplate reader, and the emission intensity was measured for each well.

B1: 15C2 antibody (monoclonal antibody derived from the hybridoma of clone 15C2) (antibody, mouse IgG1, kappa, V domains shown)
VH: EVQLQQFGAELVKPGASVKISCKASGYTFTDYNMDWVKQSHGKSLEWIGDINPNYDSSSYNQKFKGKATLTVDKSSSTAYMELRSLTSEDTAVYYCTRSGGTYWGQGTLVTVSA
VL: DIQMNQSPSSLSASLGDTITITCHASQNINVWLSWYQQKPGNIPKLLIYKASNLHTGVPSRFSGSGSGTGFSLTISSLQPEDIATYYCQQAQSYPRTFGGGTKLEIKR
notes: Mouse IgG1; Used as hybridoma culture supernatant (ELISA) or purified from supernatant (IB, IP); also called anti-Crtac1B antibody; antibody of the present embodiment
binding result (human Crtac1A): no binding
binding result [1]: binds
